From publication PMC10786891, “Massively parallel profiling of RNA-targeting CRISPR-Cas13d”
Residue numbers refer to the chain shown, from its start. Names may count otherwise.

T1: EsCas13d, nuclease-dead (Eubacterium siraeum, UniProt B0MS50, R295A;H300A;R849A;H854A)
T1 sequence: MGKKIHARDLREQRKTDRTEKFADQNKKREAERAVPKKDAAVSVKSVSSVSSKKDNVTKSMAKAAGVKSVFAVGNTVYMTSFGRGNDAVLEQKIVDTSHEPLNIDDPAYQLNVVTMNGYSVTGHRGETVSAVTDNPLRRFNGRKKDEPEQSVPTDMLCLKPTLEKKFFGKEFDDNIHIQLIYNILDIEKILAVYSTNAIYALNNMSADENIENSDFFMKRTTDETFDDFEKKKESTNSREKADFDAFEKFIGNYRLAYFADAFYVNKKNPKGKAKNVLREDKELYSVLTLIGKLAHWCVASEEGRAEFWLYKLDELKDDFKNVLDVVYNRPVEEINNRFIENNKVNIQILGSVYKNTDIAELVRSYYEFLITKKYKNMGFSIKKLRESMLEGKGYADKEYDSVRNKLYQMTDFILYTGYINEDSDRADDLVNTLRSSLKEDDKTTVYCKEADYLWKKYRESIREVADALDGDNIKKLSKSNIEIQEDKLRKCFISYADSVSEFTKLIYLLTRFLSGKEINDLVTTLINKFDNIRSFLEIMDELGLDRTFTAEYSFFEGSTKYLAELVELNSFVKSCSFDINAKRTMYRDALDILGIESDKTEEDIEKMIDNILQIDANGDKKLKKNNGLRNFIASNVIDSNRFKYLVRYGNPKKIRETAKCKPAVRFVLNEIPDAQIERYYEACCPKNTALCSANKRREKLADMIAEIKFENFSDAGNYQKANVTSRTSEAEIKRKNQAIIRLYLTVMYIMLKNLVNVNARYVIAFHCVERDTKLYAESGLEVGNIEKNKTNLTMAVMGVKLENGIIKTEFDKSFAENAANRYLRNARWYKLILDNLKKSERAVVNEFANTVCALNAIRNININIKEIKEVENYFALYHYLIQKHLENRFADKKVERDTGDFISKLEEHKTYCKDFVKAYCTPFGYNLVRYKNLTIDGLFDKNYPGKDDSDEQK

B1: target 1 insA 3' of 17,insC 3' of 17 (mixed)
RNA 1: CACCCGUGCAAAAAUGCAGGGGUCUAAAACUGAGCGGAUAACCUCUCUAUGG
RNA 2: GGGAAUGGAUCCACAUCUACGAAUUCGUACCAUAGACAGAGGUUAUCCGCUCACCGAGAUCGGAAGAGCACACGU
B2: target 1 U11C,G12A (mixed)
RNA 1: B1 RNA 1
RNA 2: GGGAAUGGAUCCACAUCUACGAAUUCGUACCAUAGAGAGACUAUCCGCUCACCGAGAUCGGAAGAGCACACGU
B3: target 1 G5C,U11G (mixed)
RNA 1: B1 RNA 1
RNA 2: B2 RNA 2 with A40G, C41G, G47C
B4: target 1 insU 3' of 18,insG 3' of 6 (mixed)
RNA 1: B1 RNA 1
RNA 2: GGGAAUGGAUCCACAUCUACGAAUUCGUACCAUAUGAGAGGUUAUCCGGCUCACCGAGAUCGGAAGAGCACACGU
B5: target 1 insC 3' of 22,insC 3' of 19 (mixed)
RNA 1: B1 RNA 1
RNA 2: B1 RNA 2 with A32C, U33A, A34U, G35C, C37G
B6: target 1 insA 3' of 17,insA 3' of 13 (mixed)
RNA 1: B1 RNA 1
RNA 2: B1 RNA 2 with C37A, A38G, G39A, A40G, G41A
B7: target 1 insU 3' of 20,insA 3' of 11 (mixed)
RNA 1: B1 RNA 1
RNA 2: B4 RNA 2 with A34U, U35A, U43A, A44U, U45A, C46U, G48C
B8: target 1 insG 3' of 14,insU 3' of 12 (mixed)
RNA 1: B1 RNA 1
RNA 2: B1 RNA 2 with C37G, A40G, G42U
B9: target 1 insC 3' of 5,insU 3' of 4 (mixed)
RNA 1: B1 RNA 1
RNA 2: GGGAAUGGAUCCACAUCUACGAAUUCGUACCAUAGAGAGGUUAUCCGCCUUCACCGAGAUCGGAAGAGCACACGU
B10: target 1 C4G,C6U (mixed)
RNA 1: B1 RNA 1
RNA 2: B2 RNA 2 with A40G, C41U, C46U, C48G
B11: target 1 G5U,G13U (mixed)
RNA 1: B1 RNA 1
RNA 2: B2 RNA 2 with G39U, A40G, C41U, G47U
B12: target 1 C7A,G17A (mixed)
RNA 1: B1 RNA 1
RNA 2: B2 RNA 2 with G35A, A40G, C41U, C45A
B13: target 1 insG 3' of 14,insA 3' of 11 (mixed)
RNA 1: B1 RNA 1
RNA 2: B1 RNA 2 with C37G, A40G, G42U, U43A
B14: target 1 U19G,C22U (mixed)
RNA 1: B1 RNA 1
RNA 2: B2 RNA 2 with C30U, U33G, A40G, C41U
B15: target 1 insC 3' of 11,insA 3' of 3 (mixed)
RNA 1: B1 RNA 1
RNA 2: B9 RNA 2 with U42C, A43U, U44A, C45U, G47C, C48G, U51A
B16: target 1 insA 3' of 22,insG 3' of 19 (mixed)
RNA 1: B1 RNA 1
RNA 2: B1 RNA 2 with C31A, A32C, U33A, A34U, C37G
B17: target 1 insC 3' of 22,insA 3' of 2 (mixed)
RNA 1: B1 RNA 1
RNA 2: B4 RNA 2 with A32C, U33A, A34U, U35A, G49C, C50U, U51C, C52A
B18: target 1 C7U,G17A (mixed)
RNA 1: B1 RNA 1
RNA 2: B2 RNA 2 with G35A, A40G, C41U, C45U
B19: target 1 insA 3' of 6,insA 3' of 6 (mixed)
RNA 1: B1 RNA 1
RNA 2: B9 RNA 2 with G47A, C48A, C49G, U50C
B20: target 1 del7,del18 (mixed)
RNA 1: B1 RNA 1
RNA 2: GGGAAUGGAUCCACAUCUACGAAUUCGUACCAUGAGAGGUUAUCGCUCACCGAGAUCGGAAGAGCACACGU
B21: target 1 insA 3' of 10,insA 3' of 8 (mixed)
RNA 1: B1 RNA 1
RNA 2: B9 RNA 2 with U44A, C45U, C46A, G47C, C49G, U50C
B22: target 1 insU 3' of 18,insA 3' of 11 (mixed)
RNA 1: B1 RNA 1
RNA 2: B4 RNA 2 with U43A, A44U, U45A, C46U, G48C
B23: target 1 G15U (mixed)
RNA 1: B1 RNA 1
RNA 2: B2 RNA 2 with G37U, A40G, C41U
B24: target 1 insG 3' of 16,insC 3' of 5 (mixed)
RNA 1: B1 RNA 1
RNA 2: B4 RNA 2 with U35G, G36A, A37G, G49C
B25: target 1 insU 3' of 20,insU 3' of 6 (mixed)
RNA 1: B1 RNA 1
RNA 2: B4 RNA 2 with A34U, U35A, G48U
B26: target 1 insA 3' of 19,insC 3' of 8 (mixed)
RNA 1: B1 RNA 1
RNA 2: B4 RNA 2 with U35A, G48C
B27: target 1 insC 3' of 8,insC 3' of 5 (mixed)
RNA 1: B1 RNA 1
RNA 2: B9 RNA 2 with G47C, C48G, U50C
B28: target 1 insA 3' of 22,insG 3' of 1 (mixed)
RNA 1: B1 RNA 1
RNA 2: GGGAAUGGAUCCACAUCUACGAAUUCGUACACAUAGAGAGGUUAUCCGCUCAGCCGAGAUCGGAAGAGCACACGU
B29: target 1 U11G,G12C (mixed)
RNA 1: B1 RNA 1
RNA 2: B2 RNA 2 with A40C, C41G

Each binder was assayed against T1, EsCas13d, nuclease-dead (assay: crRNA (strand 1, pre-loaded); Mg2+; 40 mM Tris-HCl pH 7.5, 150 mM NaCl, 6 mM MgCl2, 1 mM DTT, 0.1% Tween-20, 0.2 mg/ml BSA; 25 C; 10 min per concentration, then washed). Details: tags: His6-TwinStrep-SUMO cleaved; N-terminal SNAP kept (SNAP-Surface 488); label: 3' end held by stalled T7 RNA polymerase.

| Binder | Kd [nM] |
| --- | --- |
| B1 | 41.4 ± 2.9 |
| B2 | 8.9 ± 0.4 |
| B3 | 37 ± 5 |
| B4 | 33.2 ± 2.9 |
| B5 | ~70 |
| B6 | 10 ± 0.7 |
| B7 | 29.6 ± 2.6 |
| B8 | 16.4 ± 2.4 |
| B9 | 15.7 ± 1.3 |
| B10 | 3.83 ± 0.2 |
| B11 | 64 ± 8 |
| B12 | 51 ± 5 |
| B13 | 39.2 ± 2.6 |
| B14 | 74 ± 16 |
| B15 | 27.4 ± 2 |
| B16 | 51 ± 7 |
| B17 | 24 ± 4 |
| B18 | 34 ± 4 |
| B19 | 17.4 ± 0.9 |
| B20 | 58 ± 6 |
| B21 | 11.3 ± 0.4 |
| B22 | 68 ± 6 |
| B23 | 18.6 ± 1.1 |
| B24 | 52 ± 5 |
| B25 | 15.4 ± 0.6 |
| B26 | 34 ± 4 |
| B27 | 14.6 ± 0.7 |
| B28 | 11.2 ± 0.4 |
| B29 | 17 ± 1 |
